# Measured values reported in the array DNA melting data of Ke et al..
# Experiment: melting temperature; melt of duplexes
# Conditions: sodium 0.0675 M; strand 1 µM
row,Substance,Tm
1,CGACGTGCATGATGTGCTG+CAGCACATACCGCACGTCG ((((((((...((((((((+))))))))...)))))))),47.5 °C
2,CGACGTGCGCTATGTGCTG+CAGCACATGCGGCACGTCG ((((((((...((((((((+))))))))...)))))))),54 °C
3,CGACGTGCCAAATGTGCTG+CAGCACATGCGGCACGTCG (((((((((..((((((((+))))))))..))))))))),57.1 °C
4,CGACGTGCAAGATGTGCTG+CAGCACATCCTGCACGTCG (((((((((.(((((((((+))))))))).))))))))),56.5 °C
5,CGACGTGCCAGATGTGCTG+CAGCACATTAGGCACGTCG (((((((((..((((((((+))))))))..))))))))),56.2 °C
6,CGACGTGCAGCATGTGCTG+CAGCACATATAGCACGTCG ((((((((...((((((((+))))))))...)))))))),46.3 °C
7,CGACGTGCCTAATGTGCTG+CAGCACATATCGCACGTCG ((((((((...((((((((+))))))))...)))))))),47 °C
8,CGACGTGCCTGATGTGCTG+CAGCACATCGGGCACGTCG (((((((((.(((((((((+))))))))).))))))))),61.7 °C
9,CGACGTGCAGAATGTGCTG+CAGCACATAAAGCACGTCG ((((((((...((((((((+))))))))...)))))))),50.5 °C
10,CGACGTGCATGATGTGCTG+CAGCACATAACGCACGTCG ((((((((.(.((((((((+)))))))).).)))))))),49.3 °C
11,CGACGTGCGTGATGTGCTG+CAGCACATCCTGCACGTCG ((((((((..(((((((((+)))))))))..)))))))),55.6 °C
12,CGACGTGCCTTATGTGCTG+CAGCACATCAAGCACGTCG ((((((((.(.((((((((+)))))))).).)))))))),48.8 °C
13,CGACGTGCCCGATGTGCTG+CAGCACATCCTGCACGTCG ((((((((..(((((((((+)))))))))..)))))))),52.5 °C
14,CGACGTGCCCTATGTGCTG+CAGCACATTCGGCACGTCG (((((((((..((((((((+))))))))..))))))))),52.9 °C
15,CGACGTGCTCCATGTGCTG+CAGCACATTCTGCACGTCG ((((((((...((((((((+))))))))...)))))))),47.2 °C
16,CGACGTGCCCCATGTGCTG+CAGCACATCAAGCACGTCG ((((((((...((((((((+))))))))...)))))))),47.3 °C
17,CGACGTGCCAAATGTGCTG+CAGCACATTTCGCACGTCG ((((((((.((((((((((+)))))))))).)))))))),54.1 °C
18,CGACGTGCGAAATGTGCTG+CAGCACATTGTGCACGTCG ((((((((..(((((((((+)))))))))..)))))))),52.4 °C
19,CGACGTGCTAAATGTGCTG+CAGCACATCACGCACGTCG ((((((((...((((((((+))))))))...)))))))),49 °C
20,CGACGTGCTAAATGTGCTG+CAGCACATCTTGCACGTCG ((((((((.(.((((((((+)))))))).).)))))))),50.1 °C
21,CGACGTGCGCAATGTGCTG+CAGCACATCTTGCACGTCG ((((((((...((((((((+))))))))...)))))))),48.7 °C
22,CGACGTGCCATATGTGCTG+CAGCACATGTCGCACGTCG ((((((((.(.((((((((+)))))))).).)))))))),50.5 °C
23,CGACGTGCAACATGTGCTG+CAGCACATACAGCACGTCG ((((((((...((((((((+))))))))...)))))))),47.9 °C
24,CGACGTGCGGTATGTGCTG+CAGCACATCCCGCACGTCG ((((((((((.((((((((+)))))))).)))))))))),59.9 °C

row,Substance,Tm
1,CGACGTGCGAGATGTGCTG+CAGCACATCCAGCACGTCG ((((((((..(((((((((+)))))))))..)))))))),56.5 °C
2,CGACGTGCTGCATGTGCTG+CAGCACATTCCGCACGTCG ((((((((.(.((((((((+)))))))).).)))))))),49.3 °C
3,CGACGTGCGAAATGTGCTG+CAGCACATGCGGCACGTCG ((((((((...((((((((+))))))))...)))))))),51.7 °C
4,CGACGTGCCGAATGTGCTG+CAGCACATGACGCACGTCG ((((((((...((((((((+))))))))...)))))))),50.1 °C
5,CGACGTGCCGAATGTGCTG+CAGCACATAGGGCACGTCG (((((((((..((((((((+))))))))..))))))))),54.4 °C
6,CGACGTGCCCCATGTGCTG+CAGCACATGTGGCACGTCG (((((((((.(((((((((+))))))))).))))))))),58.8 °C
7,CGACGTGCTATATGTGCTG+CAGCACATTGTGCACGTCG ((((((((...((((((((+))))))))...)))))))),47.2 °C
8,CGACGTGCCAAATGTGCTG+CAGCACATCCTGCACGTCG ((((((((...((((((((+))))))))...)))))))),48.5 °C
9,CGACGTGCTCCATGTGCTG+CAGCACATATCGCACGTCG ((((((((...((((((((+))))))))...)))))))),46.4 °C
10,CGACGTGCGGAATGTGCTG+CAGCACATTAAGCACGTCG ((((((((..(((((((((+)))))))))..)))))))),55.8 °C
11,CGACGTGCCTGATGTGCTG+CAGCACATCGAGCACGTCG ((((((((..(((((((((+)))))))))..)))))))),55.3 °C
12,CGACGTGCGTCATGTGCTG+CAGCACATCCGGCACGTCG ((((((((...((((((((+))))))))...)))))))),48.7 °C
13,CGACGTGCGCTATGTGCTG+CAGCACATGGTGCACGTCG ((((((((.(.((((((((+)))))))).).)))))))),54.6 °C
14,CGACGTGCGATATGTGCTG+CAGCACATGGAGCACGTCG ((((((((...((((((((+))))))))...)))))))),57.4 °C
15,CGACGTGCATCATGTGCTG+CAGCACATACGGCACGTCG ((((((((...((((((((+))))))))...)))))))),46.3 °C
16,CGACGTGCCGAATGTGCTG+CAGCACATTTTGCACGTCG ((((((((..(((((((((+)))))))))..)))))))),51.7 °C
17,CGACGTGCTTCATGTGCTG+CAGCACATAAGGCACGTCG ((((((((.(.((((((((+)))))))).).)))))))),50.6 °C
18,CGACGTGCCCCATGTGCTG+CAGCACATCGAGCACGTCG ((((((((.(.((((((((+)))))))).).)))))))),48.7 °C
19,CGACGTGCACGATGTGCTG+CAGCACATGGCGCACGTCG ((((((((.(.((((((((+)))))))).).)))))))),50.2 °C
20,CGACGTGCCCTATGTGCTG+CAGCACATATCGCACGTCG ((((((((..(((((((((+)))))))))..)))))))),48.1 °C
21,CGACGTGCTGAATGTGCTG+CAGCACATTGGGCACGTCG ((((((((..(((((((((+)))))))))..)))))))),53.8 °C
22,CGACGTGCCCGATGTGCTG+CAGCACATGTCGCACGTCG ((((((((...((((((((+))))))))...)))))))),48.4 °C
23,CGACGTGCGGAATGTGCTG+CAGCACATCTGGCACGTCG ((((((((...((((((((+))))))))...)))))))),52.3 °C
24,CGACGTGCGAAATGTGCTG+CAGCACATCGCGCACGTCG (((((((((..((((((((+))))))))..))))))))),53.8 °C

row,Substance,Tm
1,CGACGTGCGACATGTGCTG+CAGCACATGTTGCACGTCG ((((((((.((((((((((+)))))))))).)))))))),60.9 °C
2,CGACGTGCGGCATGTGCTG+CAGCACATGTTGCACGTCG ((((((((..(((((((((+)))))))))..)))))))),57.6 °C
3,CGACGTGCAACATGTGCTG+CAGCACATATGGCACGTCG ((((((((.(.((((((((+)))))))).).)))))))),49.2 °C
4,CGACGTGCGATATGTGCTG+CAGCACATGGCGCACGTCG (((((((((..((((((((+))))))))..))))))))),57.4 °C
5,CGACGTGCGCTATGTGCTG+CAGCACATCGCGCACGTCG ((((((((((.((((((((+)))))))).)))))))))),60.1 °C
6,CGACGTGCTTTATGTGCTG+CAGCACATTTGGCACGTCG ((((((((...((((((((+))))))))...)))))))),50.1 °C
7,CGACGTGCTCAATGTGCTG+CAGCACATGTAGCACGTCG (((((((((..((((((((+))))))))..))))))))),52.8 °C
8,CGACGTGCAGTATGTGCTG+CAGCACATCTGGCACGTCG ((((((((...((((((((+))))))))...)))))))),51.4 °C
9,CGACGTGCAGAATGTGCTG+CAGCACATTCTGCACGTCG (((((((((((((((((((+))))))))))))))))))),64.2 °C
10,CGACGTGCTTGATGTGCTG+CAGCACATTCGGCACGTCG ((((((((...((((((((+))))))))...)))))))),50.1 °C
11,CGACGTGCATAATGTGCTG+CAGCACATGATGCACGTCG ((((((((((.((((((((+)))))))).)))))))))),56.8 °C
12,CGACGTGCAAGATGTGCTG+CAGCACATATGGCACGTCG ((((((((.(.((((((((+)))))))).).)))))))),53 °C
13,CGACGTGCGATATGTGCTG+CAGCACATATGGCACGTCG ((((((((.((((((((((+)))))))))).)))))))),56.5 °C
14,CGACGTGCGTGATGTGCTG+CAGCACATCTGGCACGTCG ((((((((..(((((((((+)))))))))..)))))))),55.7 °C
15,CGACGTGCGTGATGTGCTG+CAGCACATTAGGCACGTCG ((((((((.(.((((((((+)))))))).).)))))))),54.1 °C
16,CGACGTGCACGATGTGCTG+CAGCACATGCAGCACGTCG ((((((((...((((((((+))))))))...)))))))),45.9 °C
17,CGACGTGCATAATGTGCTG+CAGCACATTAAGCACGTCG ((((((((.((((((((((+)))))))))).)))))))),55.1 °C
18,CGACGTGCGGAATGTGCTG+CAGCACATACTGCACGTCG ((((((((.(.((((((((+)))))))).).)))))))),54.3 °C
19,CGACGTGCGCCATGTGCTG+CAGCACATGAAGCACGTCG ((((((((..(((((((((+)))))))))..)))))))),57.1 °C
20,CGACGTGCGTAATGTGCTG+CAGCACATACTGCACGTCG ((((((((...((((((((+))))))))...)))))))),52.4 °C
21,CGACGTGCAGCATGTGCTG+CAGCACATTACGCACGTCG ((((((((...((((((((+))))))))...)))))))),45.1 °C
22,CGACGTGCCGAATGTGCTG+CAGCACATGCAGCACGTCG ((((((((.(.((((((((+)))))))).).)))))))),52.6 °C
23,CGACGTGCTGGATGTGCTG+CAGCACATCCTGCACGTCG ((((((((.((((((((((+)))))))))).)))))))),61.2 °C
24,CGACGTGCGCTATGTGCTG+CAGCACATACAGCACGTCG ((((((((..(((((((((+)))))))))..)))))))),52.1 °C
